Data published in patent US20130224854A1 (NIPPON KAYAKU, published 2013).

Target: T1, single-chain type IV collagen alpha1 polypeptide (human) (human, UniProt P02462 173-1669, lower proportion of hydroxylated proline and hydroxylated lysine residues than type IV collagen; carries a sugar chain recognized by ABA lectin (positions not given))
T1 construct: mature; Secreted by human cancer cells (HLF, UO31, Lu65A); also called single-chain type IV collagen polypeptide; single-chain COL4
Experiment: competition ELISA at equilibrium in solution (method of Djavadi-Ohaniance), free antibody measured on immobilized antigen
Protocol: The dissociation constant of the purified monoclonal antibody NK46141 was determined by ELISA with reference to the method of Djavadi-Ohaniance L. et al. [Djavadi-Ohaniance L., et al., (1996) In Antibody Engineering (Eds.: McCafferty J., et al.), Chapter 4, pp. 77-97., IRL Press, Oxford.].
In brief, Immunoplate (Nunc; manufactured by Thermo Fisher Scientific Inc.) with the single-chain type IV collagen al polypeptide (antigen) immobilized thereon in advance was prepared. Meanwhile, JK132 and NK46141 having a constant concentration (0.10 μg/ml) were each incubated with varying concentrations of the antigen for a sufficient time until reaching equilibrium. This incubation solution was added to the ELISA wells to determine the amount of free antibodies. Since the antigen-antibody reaction follows the law of mass action, measured values were applied to formula 1 below. X and Y in formula 2 below were determined, and a graph was drawn to determine the dissociation constant from the slope (1/Kd).

T1 sequence (P02462 173-1669): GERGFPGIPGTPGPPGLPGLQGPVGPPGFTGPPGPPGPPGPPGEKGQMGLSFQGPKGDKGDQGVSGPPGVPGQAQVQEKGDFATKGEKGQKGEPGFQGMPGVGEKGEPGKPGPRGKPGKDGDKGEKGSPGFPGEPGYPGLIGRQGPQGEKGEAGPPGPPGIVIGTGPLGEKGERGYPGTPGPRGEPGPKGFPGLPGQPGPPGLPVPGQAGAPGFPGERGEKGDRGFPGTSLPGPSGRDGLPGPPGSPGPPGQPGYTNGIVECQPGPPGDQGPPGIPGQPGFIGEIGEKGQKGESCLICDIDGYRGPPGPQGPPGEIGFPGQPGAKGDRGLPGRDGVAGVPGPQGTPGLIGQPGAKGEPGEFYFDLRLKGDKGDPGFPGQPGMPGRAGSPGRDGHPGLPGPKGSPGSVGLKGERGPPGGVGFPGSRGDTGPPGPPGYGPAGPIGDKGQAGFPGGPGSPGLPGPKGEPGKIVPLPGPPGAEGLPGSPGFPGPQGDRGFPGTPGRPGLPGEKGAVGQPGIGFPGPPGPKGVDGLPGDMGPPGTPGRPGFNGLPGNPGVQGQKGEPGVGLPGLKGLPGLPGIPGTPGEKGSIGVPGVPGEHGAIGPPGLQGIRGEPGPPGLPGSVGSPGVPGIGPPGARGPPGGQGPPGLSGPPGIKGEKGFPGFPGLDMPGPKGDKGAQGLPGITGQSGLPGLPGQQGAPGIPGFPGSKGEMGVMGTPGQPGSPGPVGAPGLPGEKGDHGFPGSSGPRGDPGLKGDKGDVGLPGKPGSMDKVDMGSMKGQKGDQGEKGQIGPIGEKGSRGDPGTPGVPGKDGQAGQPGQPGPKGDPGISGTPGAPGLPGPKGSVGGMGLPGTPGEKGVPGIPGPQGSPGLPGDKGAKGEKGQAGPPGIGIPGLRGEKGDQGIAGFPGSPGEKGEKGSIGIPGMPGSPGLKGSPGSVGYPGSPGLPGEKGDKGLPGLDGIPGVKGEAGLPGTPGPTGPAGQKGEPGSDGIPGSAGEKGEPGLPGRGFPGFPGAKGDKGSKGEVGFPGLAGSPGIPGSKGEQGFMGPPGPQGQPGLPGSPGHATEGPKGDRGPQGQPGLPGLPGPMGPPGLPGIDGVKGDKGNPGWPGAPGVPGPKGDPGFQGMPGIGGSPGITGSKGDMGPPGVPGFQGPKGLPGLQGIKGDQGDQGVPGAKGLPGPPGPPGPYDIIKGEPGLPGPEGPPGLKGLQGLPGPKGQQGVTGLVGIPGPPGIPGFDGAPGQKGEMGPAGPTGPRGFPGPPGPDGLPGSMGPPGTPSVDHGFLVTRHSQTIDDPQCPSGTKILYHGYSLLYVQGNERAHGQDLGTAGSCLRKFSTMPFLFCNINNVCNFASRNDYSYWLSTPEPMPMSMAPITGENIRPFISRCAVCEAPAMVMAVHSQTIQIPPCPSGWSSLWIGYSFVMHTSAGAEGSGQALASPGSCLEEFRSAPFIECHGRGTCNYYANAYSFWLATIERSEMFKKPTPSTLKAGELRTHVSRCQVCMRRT

Kd: 34 nM
B1: monoclonal antibody NK46141 (antibody, V domains shown)
VH: EVQLVESGGGLVKPGGSLKLSCAASGFTFTDYYMYWVRQTPEKRLEWVATISEGGSYTYYPDSVKGRFTISRDNAKNNLYLQMSSLKSEDTAMYYCASPYYGDGGFAYWGQGTLVTVSA
VL: DVLMTQTPLSLPVSLGDQASISCRSSQSIVHSDGNTYLEWYLQKPGQSPRLLIYKVSNRFSGVPDRFSGSGSGTDFTLKISRVEAEDLGVYYCFQGSHVPPTFGGGTKLEIKR
notes: also called anti-single-chain type IV collagen polypeptide antibody; Anti NK-Antigen monoclonal antibody #141
